According to publication PMC10411902 (Science Advances, 2023):

Molecular target: T1, BRCA1-associated protein 1 (BAP1), full-length human (residues 1 to 729) (human, UniProt Q92560 1-729)
T1 sequence: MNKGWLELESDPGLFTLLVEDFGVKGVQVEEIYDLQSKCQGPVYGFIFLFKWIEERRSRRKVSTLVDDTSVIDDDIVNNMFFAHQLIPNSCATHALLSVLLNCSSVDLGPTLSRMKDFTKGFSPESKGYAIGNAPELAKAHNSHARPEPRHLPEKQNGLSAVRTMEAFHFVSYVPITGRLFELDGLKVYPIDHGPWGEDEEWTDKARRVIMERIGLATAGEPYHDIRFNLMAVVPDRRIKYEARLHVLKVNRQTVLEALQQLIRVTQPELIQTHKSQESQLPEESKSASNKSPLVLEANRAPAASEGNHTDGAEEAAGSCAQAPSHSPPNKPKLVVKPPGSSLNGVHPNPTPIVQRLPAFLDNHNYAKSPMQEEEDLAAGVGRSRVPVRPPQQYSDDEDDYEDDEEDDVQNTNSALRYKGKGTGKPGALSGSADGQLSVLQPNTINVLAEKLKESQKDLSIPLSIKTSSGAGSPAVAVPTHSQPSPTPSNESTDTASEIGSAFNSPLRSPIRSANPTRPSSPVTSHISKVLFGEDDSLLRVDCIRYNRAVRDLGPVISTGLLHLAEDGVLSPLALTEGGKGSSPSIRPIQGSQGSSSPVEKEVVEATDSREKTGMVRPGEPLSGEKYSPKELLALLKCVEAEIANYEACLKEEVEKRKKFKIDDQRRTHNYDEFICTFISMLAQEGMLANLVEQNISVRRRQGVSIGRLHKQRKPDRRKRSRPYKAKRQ
Test: cryo-EM structure

binding result: binds
B1: Deubiquitinase adaptor domain (DEUBAD) of additional sex comb-like 1 (ASXL1), residues 237 to 390 (domain or fragment)
chain: PATGQMKRNRGEEIDFETPGSILVNTNLRALINSRTFHALPSHFQQQLLFLLPEVDRQVGTDGLLRLSSSALNNEFFTHAAQSWRERLADGEFTHEMQVRIRQEMEKEKKVEQWKEKFFEDYYGQKLGLTKEESLQQNVGQEEAEIKSGLCVPG
